Experimental findings from US20200325220A1 (INSTITUTE FOR RESEARCH IN BIOMEDICINE, published 2020) are described below.

For the assay, the target named is T1, tetanus toxoid (UniProt P04958 2-1315).
T1 construct: also called TT
As to the kind of experiment: SPR, antibody captured on protein A, H1 then TT. On the technique in general: SPR reads the build-up and loss of mass on a sensor chip optically.

T1 sequence (P04958 2-457 limits assumed, chain 1 of 2): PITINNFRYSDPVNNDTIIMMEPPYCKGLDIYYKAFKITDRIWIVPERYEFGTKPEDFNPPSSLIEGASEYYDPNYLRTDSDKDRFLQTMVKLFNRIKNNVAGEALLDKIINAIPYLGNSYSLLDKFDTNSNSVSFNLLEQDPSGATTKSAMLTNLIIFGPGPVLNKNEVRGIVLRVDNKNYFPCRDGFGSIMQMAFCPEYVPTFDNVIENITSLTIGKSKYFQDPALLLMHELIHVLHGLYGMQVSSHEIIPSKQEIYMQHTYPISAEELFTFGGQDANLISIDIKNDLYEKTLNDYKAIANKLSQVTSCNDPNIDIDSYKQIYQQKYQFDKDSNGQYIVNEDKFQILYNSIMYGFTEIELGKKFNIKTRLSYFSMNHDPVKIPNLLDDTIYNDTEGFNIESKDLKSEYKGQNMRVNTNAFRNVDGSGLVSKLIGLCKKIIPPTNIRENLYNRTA
T1 sequence (P04958 458-1315 limits assumed, chain 2 of 2): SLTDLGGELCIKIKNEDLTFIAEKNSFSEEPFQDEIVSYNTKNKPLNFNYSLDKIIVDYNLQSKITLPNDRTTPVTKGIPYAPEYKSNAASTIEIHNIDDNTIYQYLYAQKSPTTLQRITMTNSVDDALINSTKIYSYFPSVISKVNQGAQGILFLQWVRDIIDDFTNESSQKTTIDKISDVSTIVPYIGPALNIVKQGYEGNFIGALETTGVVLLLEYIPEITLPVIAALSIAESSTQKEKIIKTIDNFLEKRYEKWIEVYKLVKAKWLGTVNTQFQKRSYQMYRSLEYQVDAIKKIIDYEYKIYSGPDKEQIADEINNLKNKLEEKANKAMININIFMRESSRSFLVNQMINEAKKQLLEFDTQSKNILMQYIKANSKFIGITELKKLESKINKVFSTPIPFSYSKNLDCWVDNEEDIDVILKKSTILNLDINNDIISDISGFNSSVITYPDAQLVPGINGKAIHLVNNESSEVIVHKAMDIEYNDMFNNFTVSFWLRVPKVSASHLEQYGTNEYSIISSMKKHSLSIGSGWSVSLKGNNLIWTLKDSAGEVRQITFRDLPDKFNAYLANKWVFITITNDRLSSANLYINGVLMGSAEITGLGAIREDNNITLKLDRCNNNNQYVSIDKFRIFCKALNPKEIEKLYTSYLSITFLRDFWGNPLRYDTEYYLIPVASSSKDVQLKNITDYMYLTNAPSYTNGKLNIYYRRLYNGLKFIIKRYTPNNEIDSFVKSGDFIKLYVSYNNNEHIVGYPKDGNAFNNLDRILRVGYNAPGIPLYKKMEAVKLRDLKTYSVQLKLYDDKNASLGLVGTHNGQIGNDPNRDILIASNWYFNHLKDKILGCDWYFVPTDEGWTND

B1: FI174 (antibody, V domains shown)
VH: QVQLVQSGAEVRKPGSSVKVSCKTSGGIIRKYALSWVRQAPGQGLEWMGGIIAIFGTTNYAQKFQGRVTINADESTSTVYLELSSLTSEDTAIYYCAGSATYYESRFDYWGQGTLVTVSS
VL: EIVLTQSPGTLSLSPGARATLSCRASQSVSSSSLAWYQQKPGQAPRLLIYDASSRATGIPDRFSGSGSGTDFTLTISRLEPEDFAVYYCHQYGDSRKTFGQGTKVEIKR
notes: also called F1174; FI74
On to B1, for which the binding result is recorded as “no binding (tested: tetanus toxoid 50 nM)”.
